Experimental data taken from patent US20050182242A1, “Global analysis of protein activities using proteome chips” (priority 2001, published 2005).

B1: CMK1: yeast calcium/calmodulin-dependent serine/threonine protein kinase, GST-HisX6 fusion (protein)
chain: MDDKVSEKESSPKQTEEDSEGKMAHVQPASYVNKKKYVFGKTLGAGTFGVVRQAKNTETGEDVAVKILIKKALKGNKVQLEALYDELDILQRLHHPNIVAFKDWFESKDKFYIITQLAKGGELFDRILKKGKFTEEDAVRILVEILSAVKYMHSQNIVHRDLKPENLLYIDKSDESPLVVADFGIAKRLKSDEELLYKPAGSLGYVAPEVLTQDGHGKPCDIWSIGVITYTLLCGYSAFRAERVQDFLDECTTGEYPVKFHRPYWDSVSNKAKQFILKALNLDPSKRPTAAELLEDPWIICTELKTHNLLPGLKEGLDARQKFRNSVERVRLNMKIQKLRDLYLEQTESDSDFDEGSQANGSVPPLKATDTSQLSKKLSEEEQSKLKSELTSKAFAQLVNTVLAEKEKFLNINRVCSSDSDLPGSDIKSLDEAKEKPEGKDTKTEE
modifications: left off: a dimerising Fc or GST
notes: yeast calcium/calmodulin-dependent serine/threonine protein kinase, GST-HisX6 fusion
B2: MY04: yeast class V myosin heavy chain, GST-HisX6 fusion (protein, UniProt P32492 1-1471, looked up)
Myosin-4: MSFEVGTKCWYPHKEQGWIGGEVTKNDFFEGTFHLELKLEDGETVSIETNSFENDDDHPTLPVLRNPPILESTDDLTTLSYLNEPAVLHAIKKRYMNGQIYTYSGIVLIAANPFDKVDHLYSREMIQNYSSKRKDELEPHLFAIAEEAYRFMVHEKANQTVVVSGESGAGKTVSAKYIMRYFASVQESNNREGEVEMSQIESQILATNPIMEAFGNAKTTRNDNSSRFGKYLQILFDENTTIRGSKIRTYLLEKSRLVYQPETERNYHIFYQILEGLPEPVKQELHLSSPKDYHYTNQGGQPNIAGIDEAREYKITTDALSLVGINHETQLGIFKILAGLLHIGNIEMKMTRNDASLSSEEQNLQIACELLGIDPFNFAKWIVKKQIVTRSEKIVTNLNYNQALIARDSVAKFIYSTLFDWLVDNINKTLYDPELDQQDHVFSFIGILDIYGFEHFEKNSFEQFCINYANEKLQQEFNQHVFKLEQEEYVKEEIEWSFIEFSDNQPCIDLIENKLGILSLLDEESRLPSGSDESWASKLYSAFNKPPSNEVFSKPRFGQTKFIVSHYAVDVEYEVEGFIEKNRDSVSLGHLDVFKATTNPIFKQILDNRELRSDDAPEEQNTEKKIMIPARLSQKKPTLGSMFKKSLGELMAIINSTNVHYIRCIKPNSEKKPWEFDNLMVLSQLRACGVLETIRISCAGFPSRWTFDEFVQRYFLLTDYSLWSGILYNPDLPKEAIVNFCQSILDATISDSAKYQIGNTKIFFKAGMLAFLEKLRTNKMNEICIIIQKKIRARYYRLQYLQTMESIKKCQSQIRSLLVRTRVDHELKTRAAILLQTNIRALWKREYYRAAIGQIIKLQCTCKRKLILDSVNRKFMLMAAVIIQSYIRSYGHKTDYRTLKRSSILVQSAMRMQLARRRYIVLQKEVEERNIRASYGIGLLEEAIEFKNSFILNLEMLNDSYTRLTQLLQGDLSNIPSKQRQEYETIVNGYNDKISKLKTLQVEIMNTLNKKNALKERKKKQSSLIQSHMQSLAAIKGNKPSRLSDEVKSMKQELAFIENVIAQDFTTTYSANKNDKVKGLGIAGQQVKPKLVNVIRRESGNPDLLELLMDLNCYTLEVTEGYLKKVNVTEVNGDNVLGPIHVITTVVSSLVRNGLLIQSSKFISKVLLTVESIVMSLPKDETMLGGIFWLSNLSRLPAFAANQKTLYEANGGDEKDKLTLIYLNDLENETLKVFDKIYSTWLVKFMKHASAHIEIFDMVLNEKLFKNSGDEKFAKLFTFLNEFDAVLCKFQVVDSMHTKIFNDTLKYLNVMLFNDLITKCPALNWKYGYEVDRNIERLVSWFEPRIEDVRPNLIQIIQAVKILQLKISNLNEFKLLFDFWYALNPAQIQAILLKYKPANKGEAGVPNEILNYLANVIKRENLSLPGKMEIMLSAQFDSAKNHLRYDTSAITQNSNTEGLATVSKIIKLDRK
modifications: GST-HisX6 tag
notes: yeast class V myosin heavy chain, GST-HisX6 fusion

Key:
[1] = system: PI(4)P liposomes; assay: Yeast proteome chip probed with PI(4)P liposomes; conditions: liposome binding signal on yeast proteome chip, Cy3-streptavidin detection
[2] = system: phospholipids (phosphatidylinositols vs phosphatidylcholine); assay: Proteome chip lipid-binding screen, overall analysis of six liposomes (PI/PC specificity); conditions: compared with phosphatidylcholine
Excerpt: FIGS. 4A-4D. Analysis of the phosphatidylinositol-binding proteins. To determine the phosphatidylinositol (“PI”)-binding specificity of 150 positive proteins, their binding signals were normalized against the corresponding binding signals of phosphatidylcholine (“PC”). Based on the ratios (“PI/PC”), the proteins were grouped into four categories: (A) 30 strong and specific, (B) 43 strong and nonspecific, (C) 19 weak and specific, and (D) 58 weak and nonspecific phosphatidylinositol-binding proteins. The intensity represents the PI/PC signal ratio as shown by the scale in the figure. The column, labeled “10^n” to the right of the PI/PC binding ratios indicates the maximum binding signal intensity (open boxes) and its confidence interval (solid horizontal lines); the numbers indicate the log of the values. Boxes in the three columns to the right of the confidence interval column indicate membrane-associated proteins (“Membrane”), kinases (“Kinase”), and uncharacterized ORFs (“Unknown”), respectively.
To identify PI-binding proteins in yeast, liposomes were used as probes because the liposome provides the most relevant physiological condition to assay the interactors. Six types of liposomes were used. Each contains phosphatidylcholine (“PC”) with 1% (w/w) N-(biotinoyl)-1,2-dihexadecanoyl-sn-glycero-3-phosphoethanolamine, triethylammonium salt (biotin DHPE). The biotinylated lipid serves as a label that can be detected by Cy3-streptavidin (21). In addition to PC, the five other liposomes contain either 5% (w/w) PI(3)P, PI(4)P, PI(3,4)P2, PI(4,5)P2, or PI(3,4,5)P3 (FIG. 3A).
The protein-liposome interaction was assayed as follows. Appropriate amounts of each lipid in chloroform were mixed and dried under nitrogen. The lipid mixture was resuspended in TBS buffer by vortexing. The liposomes were created by sonication. Blocked proteome chips were washed three to five times in PBS buffer, and the extra liquid on the glass surface was removed by tapping the slides vertically on a KIMWIPE™. 200 μl of liposome solution was added to the proteome chip and immediately covered by a hydrophobic plastic cover slip (GRACE BIO-LAB™, USA). After trapped air bubbles were removed, the chip was incubated in a humidity chamber at RT for one hour. To remove the cover slip, the chip was immersed into large volume of PBS buffer (50 ml), so that the slip would float away. The chip was then moved to a second PBS bath (>50 ml) and washed 3×5 min with shaking at RT. After removing extra liquid on the surface of the chip, about 100 μl of Cy3 or Cy5 conjugated streptavidin (PIERCE™, USA; 1:2000 to 1:4000 dilution) was added to the surface and covered by a hydrophobic plastic cover slip (GRACE BIO-LABS™, USA). The chip was incubated for greater than 30 min in the dark at RT. The chip was then washed as described above. To completely remove the liquid on the chip, the chip was spun to dryness at 1500-2000 rpm for 5-10 min at RT.
An algorithm was devised to assist in the identification of positive signals (42). Fifty-two (35%) of the interactors (i.e., lipid-binding proteins) correspond to uncharacterized proteins thus ascribing the first biochemical activities to those proteins.
The interactors (i.e., phospholipid-binding proteins) were grouped in several ways (42). First, the interactors were sorted according to whether they bound lipids strongly or weakly, based on the phospholipid-binding signal relative to the amount of GST (FIG. 4). Slightly more (72%) of the strong lipid binding proteins (FIGS. 4A and 4B) were characterized relative to the weakly binding proteins (54%) (FIGS. 4C and 4D). Many of the strong lipid-binding proteins are membrane-associated, or are predicted to be associated with membranes, whereas fewer of the weaker binding proteins appear to be associated with membranes (FIG. 4, “Membrane” column). […] Moreover, thirteen of the seventeen protein kinases bind very strongly to the phospholipids. […]

Molecule	PI(4)P [1]	preferential binding of particular phosphatidylinositol lipids [2]
B1	105.39	–
B2	36.58	preferentially binds PI(4,5)P2
